System: T1, MJ1 integrase (phage phiFC1) (Enterococcus phage phiFC1)
T1 sequence: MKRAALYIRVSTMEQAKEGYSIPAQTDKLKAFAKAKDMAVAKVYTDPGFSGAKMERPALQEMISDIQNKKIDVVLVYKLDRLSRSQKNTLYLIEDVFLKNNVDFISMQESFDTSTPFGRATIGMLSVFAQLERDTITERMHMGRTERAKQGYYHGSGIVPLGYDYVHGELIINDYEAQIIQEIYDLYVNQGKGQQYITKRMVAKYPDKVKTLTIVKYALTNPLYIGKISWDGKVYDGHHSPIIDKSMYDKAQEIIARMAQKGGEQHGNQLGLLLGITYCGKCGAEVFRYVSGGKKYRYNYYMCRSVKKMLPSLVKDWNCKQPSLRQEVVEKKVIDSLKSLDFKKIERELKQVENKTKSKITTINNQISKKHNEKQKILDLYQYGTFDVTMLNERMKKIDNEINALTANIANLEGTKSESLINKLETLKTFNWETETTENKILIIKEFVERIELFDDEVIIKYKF
Test: cell_activity
Details: 396 cells without MJ1, FACS 72 h

| Sequence | activity (fluorescent cells) (attB x attP integration in 293T cells) | activity (fluorescent cells) (attP x attB integration in 293T cells) |
| --- | --- | --- |
| CGGCCATTGAATTAGGGTGTCGAATTTATCAAAGTAGTCAAATCAAATTTGGCAAAGTTACGTCCAGTCAACAAGTCGCTCAACGATTACTCCAAGAGATGAAGGGGCTGCAACAAGAACATTTAATTTGTATTTACTTGAATACCAAGAATGACATTATCCAACAGAAAACGATTTTCAAAGGATCACTGAATCAAAGTATTGCTCATCCACGCGAAATTTTTCGGGAAGCGGTTAAATATTCTTCTGCTCGCATACTATTAGCTCATAATCATCCATCTGGCAATCCG (double strand) [attB 290 bp] | 1240 |  |
| GAAGATCTTGTTCTCGAGCATAGTCTCCTTCAAGTTTTGTTATATCTGATAATAGAGACTTTTCTTTTTGTTGTAAACTATTGATTGACAAATCTGGTCCTCCTTTAAAATATATAATTAATATTGGTTTAATTATACCATTCTATAGGTAAGAACAGTAATATGACCAAATTTAAATATCTTTTTATGCACTAATCAAAGTTTTCCTTACAAGCATTTNTTCAATTACGAGTTGATTTCTTTTATTCAAATGACCATAGACAGCTAGTTCAGATTTTTCGGGTAGCATTAGTAACATATTTGCTAATTCGTATTTGGAGACGATACAGTTTATAGTTTCGTCCTGTGTTACTAATGAGAATCGAACTAGCATTTTTGGGTACATACTTAACATTCTAATCTTTTCAACTACTCCTACATAATTAGTTTTCATAATATCGGCCTCCTAGTAATACAATTATACCGAATGCATGTTCGTATTGTCTATAGGTTTGTATAAATGTAATATTTTAGGTATATGATTTTGTTTATTAGTGTAAATAACACTATGTACCTAAAATTTATATTTAATAATTACCTCATCATCAAATAGTTCTATACGTTCAACAAACTCTTTGATGATAAGGATTTTATTTTCTGTAGTTTCAGTTTCCCAATTAAAAGTTTTTAACGTTTCAAGCTTATTAATTAATGACTCACTTTTGGTACCTTCTAAGTTTGCTATATTGGCAGTTAACGC (double strand) [attP 739 bp] |  | 1240 |

Reference: patent US20060134788
